# B1: HaHPPDm-F372G: Helianthus annuus HPPD mutant F372G, SEQ ID NO: 319 (protein)
# chain: MGTEATVAAVVAGDESDHPTSAFKLVGFKNFIRTNPMSDKFTVKNFHHIEFWCSDATNTARRFSWGLGMPIIFKSDLSTGNSTHASYLLRSGHLNFLFTAPYSPSISPTTTTASIPTFSHSASRHFTATHGLAVRAIAVEVEDAETAFAVSVANGAKPSSPPVTLGHNDVVLSEVKLYGDVVLRYVSYKNNTNNNNNNDNDNYIFLPGFEAMDKTSSFQELDYGIRRLDHAVGNVPELAPAVDYVKSFTGFHEFAEFTAEDVGTSESGLNSVVLACNSEMVLIPMNEPVYGTKRKSQIQTYLEHNEGAGVQHLALASEDIFRTLREMRKRSGVGGFEFMPSPPPTYYRNLKSRAGDVLSDEQIKECEELGILVDRDDQGTLLQIGTKPVGDRPTIFIEIIQRVGCMVKDDEGKVQQKAGCGGFGKGNFSELFKSIEEYEKTLEARSTTAA
# modifications: HaHPPDm-F372G Amino Acid Sequence
# B2: CaHPPDm-F372G: Cicer arietinum HPPD mutant F372G, SEQ ID NO: 315 (protein)
# chain: MGTIETQTGFKLVGFNNFVRTNPKSDRFKVKRFHHVEFWCPDATNTARRFSWGLGMPIVAKSDLSTGNQTHASYLLRSGDLNFLFTAAYSPSISLSAPHPTASIPSFSAPTSFAFSASHGLGVRAVAIEVDDAEFAYTTSVNHGAIPSSPPVVLDNRVKLAEVQLYGDVVLRYVSYNDPIETSNPNPNHWFLPGFEPVEETSSNQSIDFGIQRLDHAVGNVPELSSALNYVKQFTGFHEFAEFTAEDVGTSESGLNSTVLANNEETVLLPMNEPVYGTKRKSQIQTYLEHNEGAGLQHLALMSNDIFKTLREMRKRSGIGGFEFMPSPPPTYYSNLKKRVGDVLNDEQIKECEELGILVDKDDQGTLLQIGTKPVGDRPTIFIEIIQRVGCMLKDDEGKEYQKGGCGGFGKGNFSELFKSIEEYEKTLEIKRTA
# modifications: CaHPPDm-F372G Amino Acid Sequence
# B3: GmHPPDm-F372G: Glycine max HPPD mutant F372G, SEQ ID NO: 313 (protein)
# chain: MPMYTPSLSAPSSNHIQPSVTLPLYITTTKLNLKQQHHTTPMPIPMCNEIQAQAQAQAQPGFKLVGFKNFVRTNPKSDRFQVNRFHHIEFWCTDATNASRRFSWGLGMPIVAKSDLSTGNQIHASYLLRSGDLSFLFSAPYSPSLSAGSSAASSASIPSFDAATCLAFAAKHGFGVRAIALEVADAEAAFSASVAKGAEPASPPVLVDDRTGFAEVRLYGDVVLRYVSYKDAAPQAPHADPSRWFLPGFEAAASSSSFPELDYGIRRLDHAVGNVPELAPAVRYLKGFSGFHEFAEFTAEDVGTSESGLNSVVLANNSETVLLPLNEPVYGTKRKSQIETYLEHNEGAGVQHLALVTHDIFTTLREMRKRSFLGGFEFMPSPPPTYYANLHNRAADVLTVDQIKQCEELGILVDRDDQGTLLQIGTKPVGDRPTIFIEIIQRIGCMVEDEEGKVYQKGACGGFGKGNFSELFKSIEEYEKTLEAKRTA
# modifications: GmHPPDm-F372G Amino Acid Sequence
# B4: AtHPPDm-F372G: Arabidopsis thaliana HPPD mutant F372G, SEQ ID NO: 297 (protein)
# chain: MGHQNAAVSENQNHDDGAASSPGFKLVGFSKFVRKNPKSDKFKVKRFHHIEFWCGDATNVARRFSWGLGMRFSAKSDLSTGNMVHASYLLTSGDLRFLFTAPYSPSLSAGEIKPTTTASIPSFDHGSCRSFFSSHGLGVRAVAIEVEDAESAFSISVANGAIPSSPPIVLNEAVTIAEVKLYGDVVLRYVSYKAEDTEKSEFLPGFERVEDASSFPLDYGIRRLDHAVGNVPELGPALTYVAGFTGFHQFAEFTADDVGTAESGLNSAVLASNDEMVLLPINEPVHGTKRKSQIQTYLEHNEGAGLQHLALMSEDIFRTLREMRKRSSIGGFDFMPSPPPTYYQNLKKRVGDVLSDDQIKECEELGILVDRDDQGTLLQIGTKPLGDRPTIFIEIIQRVGCMMKDEEGKAYQSGGCGGFGKGNFSELFKSIEEYEKTLEAKQLVG
# modifications: AtHPPDm-F372G Amino Acid Sequence
# B5: BnHPPDm-F372G: Brassica napus HPPD mutant F372G, SEQ ID NO: 317 (protein)
# chain: MGHENAAVCETQQHDDAASPGFKLVGFSKFVRKNPKSDKFKVKRFHHIEFWCGDATNVSRRFSWGLGMRFSAKSDLSTGNMVHASYLLTSGDLRFLFTAPYSPSLSAGEAQPSATASIPSFDHASCRSFFSSHGLGVRAVAIEVEDAESAFSISVANGAVPSSPPNVLNGAVTIAEVKLYGDVVLRYVSYYNGTVSFLPGFESVDDTSSFPLDYGIRRLDHAVGNVPELGPALTYLAGFTGFHQFAEFTADDVGTAESGLNSAVLANNDEMVLLPINEPVHGTKRKSQIQTFLEHNEGAGLQHLALMSEDIFRTLREMRKRSGVGGFDFMPSPPPTYYKNLKKRVGDVLSEEQIEECEELGILVDRDDQGTLLQIGTKPLGDRPTIFIEIIQRVGCMKRDEEGKVYQSGGCGGFGKGNFSELFKSIEEYEKTLEAKQLVG
# modifications: BnHPPDm-F372G Amino Acid Sequence
# B6: OsHPPDm-F372G: Oryza sativa HPPD mutant F372G, SEQ ID NO: 311 (protein)
# chain: MPPTPTPTATTGAVSAAAAAGENAGFRLVGHRRFVRANPRSDRFQALAFHHVELWCADAASAAGRFAFALGAPLAARSDLSTGNSAHASLLLRSASVAFLFTAPYGGDHGVGADAATTASIPSFSPGAARRFAADHGLAVHAVALRVADAADAFRASVAAGARPAFQPADLGGGFGLAEVELYGDVVLRFVSHPDGADAPFLPGFEGVSNPGAVDYGLRRFDHVVGNVPELAPVAAYISGFTGFHEFAEFTAEDVGTAESGLNSVVLANNAETVLLPLNEPVHGTKRRSQIQTYLDHHGGPGVQHIALASDDVLGTLREMRARSAMGGFEFLAPPPPNYYDGVRRRAGDVLSEEQINECQELGVLVDRDDQGVLLQIGTKPVGDRPTFFLEMIQRIGCMEKDESGQEYQKGGCGGFGKGNFSELFKSIEEYEKSLEAKQAPTVQGS
# modifications: OsHPPDm-F372G Amino Acid Sequence
# B7: SbHPPDm-F372G: Sorghum bicolor HPPD mutant F372G, SEQ ID NO: 309 (protein)
# chain: MPPTPTTAAATGAAVAAASAEQAAFRLVGHRNFVRVNPRSDRFHTLAFHHVELWCADAASAAGRFSFGLGAPLAARSDLSTGNTAHASLLLRSGALAFLFTAPYAHGADAATASLPSFSAAEARRFAADHGLAVRAVALRVADAEDAFRASVAAGARPAFEPVELGLGFRLAEVELYGDVVLRYVSYPDDADASFLPGFVGVTSPGAADYGLRRFDHIVGNVPELAPAAAYFAGFTGFHEFAEFTAEDVGTTESGLNSMVLANNAENVLLPLNEPVHGTKRRSQIQTYLDHHGGPGVQHMALASDDVLRTLREMQARSAMGGFEFMAPPAPEYYDGVRRRAGDVLTEAQIKECQELGVLVDRDDQGVLLQIGTKPVGDRPTLFLEIIQRIGCMEKDEKGQEYQKGGCGGFGKGNFSQLFKSIEDYEKSLEAKQAAAAQGS
# modifications: SbHPPDm-F372G Amino Acid Sequence
# B8: SiHPPDm-F372G: Setaria italica HPPD mutant F372G, SEQ ID NO: 307 (protein)
# chain: MPPTPTPAAAAPGAAAAPAAGDQAAFRLVGHRGFVRVNPRSDRFHTLSFHHVELWCADATSAAGRFSFGLGAPLAARSDLSTGNSAHASLLLRSGSLAFLFTAPYAHGVDAATASLPSFSAPAARSFAADHGLAVRAIGLRVADAEDAFRASVAAGARPAFKPVELGLGFRLAEVELYGDVVLRYVSYPDAEDAPFLPGFENVNNPGALNYGLRRFDHIVGNVPELAPVAAYVAGFTGFHEFAEFTAEDVGTAESGLNSMVLANNSETVLIPLNEPVHGTKRRSQIQTFLDHNGGPGVQHIALASDDVLRTLREMQARSAMGGFEFMAAPPPDYYEGVRRRAGDVLSEAQIKECQELGVLVDRDDQGVLLQIGTKPVGDRQTLFLEIIQRIGCMEKDEQGQEYQKGGCGGFGKGNFSQLFKSIEDYEKSLESKQAAAVQGS
# modifications: SiHPPDm-F372G Amino Acid Sequence
# B9: BvHPPDm-F372G: Beta vulgaris HPPD mutant F372G, SEQ ID NO: 323 (protein)
# chain: MGTLSPQPQTSPSQFKLVGYSNFIRVNPLSDLFPVKRFHHVEFWCGDATNVSRRFSWGLGMPIVAKSDLSTGNSVHASYLLRSGELHFLFTSPYSPSLSSPSSATIPTFSFSLFTSFLTSHGLAVRAVAVEVQDAEAAFHISVSNGASPVSPPIRLHDGVVLSEVHLYGDVVLRYVSTSSVVDGIFLPGFEEMLGESSFQELDFGLRRLDHAVGNVPELAPAIEYVKKFTGFHEFAEFTTEDVGTSESGLNSAVVANNDETVLFPMNEPVYGTKRKSQIQTYLEHNEGAGVQHLALMSEDIFWTLREMRKRSGLGGFEFMPSPPPTYYRNLRNRAADVLSEEQMKECEELGILVDKDDQGTLLQIGTKPIGDRPTMFIEIIQRIGCMMKDEEGKVYQKGGCGGFGKGNFSELFKSIEEYEKTLERKPIADTNAT
# modifications: BvHPPDm-F372G Amino Acid Sequence
# B10: MsHPPDm-F372G: Medicago sativa HPPD mutant F372G, SEQ ID NO: 321 (protein)
# chain: MAIETETQTQTGFKLVGFKNFVRANPKSDRFKVKRFHHVEFWCTDATNTARRFSHGLGMPIVAKSDLSTGNQTHASYLLRSGDLNFLFSAAYSPSISLSSPSSTAAIPTFSASNCFSFSASHGLAVRAVAVEVEDAELAFTTSVNNGAIPSSPPVILENHVKLAEVRLYGDVVLRYVSYNDPNPNQNPNLLFLPGFERVSDESSNSSLDFGIRRLDHAVGNVPELSSAVKYVKDFTGFHEFAEFTAEDVGTSESGLNSVVLANNEETVLLPMNEPVYGTKRKSQIETYLEHNEGAGLQHLALKSEDIFRTLREMRKRSGVGGFEFMPSPPVTYYRNLKNRVGDVLSDEQIKECEELGILVDRDDQGTLLQIGTKPIGDRPTIFIEIIQRVGCMLKDEEGKEYQKGGCGGFGKGNFSELFKSIEEYEKTLETRRTA
# modifications: MsHPPDm-F372G Amino Acid Sequence
# System: Arabidopsis thaliana T1 plants
# Experiment: Topramezone tolerance of transgenic Arabidopsis thaliana T1 plants (pesticide damage grade by bleached leaf area, score, resistance evaluation)
# Format: in vivo
# Details: topramezone 25 g ai/ha (1x); HPPD F372G mutants, Table 6
# Summary of the method: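 Herbicide tolerance was judged per plant on a bleaching scale (grade 0 no bleaching to grade 3 fully bleached) 7 DAT. Topramezone doses were 0, 25, 50 and 100 g ai/ha on 18-day-old T1 and wild-type plants.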
row,Molecule,Resistance evaluation
1,B1,Poorly resistant
2,B2,Poorly resistant
3,B3,Poorly resistant
4,B4,Poorly resistant
5,B5,Poorly resistant
6,B6,Moderately resistant
7,B7,Moderately resistant
8,B8,Moderately resistant
9,B9,Moderately resistant
10,B10,Moderately resistant

# Same assay, conditions: topramezone 100 g ai/ha (4x); HPPD F372G mutants, Table 6
row,Molecule,Resistance evaluation
1,B1,Non-resistant
2,B2,Non-resistant
3,B3,Non-resistant
4,B4,Non-resistant
5,B5,Non-resistant
6,B6,Non-resistant
7,B7,Non-resistant
8,B8,Poorly resistant
9,B9,Non-resistant
10,B10,Non-resistant

# From patent US20230212587A1, “Mutant Hydroxyphenylpyruvate Dioxygenase Polypeptide, Encoding Gene Thereof and Use Therefor” (Beijing Dabeinong Biotechnology Co., Ltd., priority 2019, published 2023)
